The values below come from paper PMC4991212 (Cell, 2016).

The assay deals with APC2 (cullin subunit of APC/C) (human, UniProt Q9UJX6 1-822). Nature of the assay: cryo-EM structure.

B1: UBE2C (C102A), catalytic Cys only version, in the multiubiquitination trap (enzyme, human, UniProt O00762 1-179, looked up)
chain: MASQNRDPAATSVAAARKGAEPSGGAARGPVGKRLQQELMTLMMSGDKGISAFPESDNLFKWVGTIHGAAGTVYEDLRYKLSLEFPSGYPYNAPTVKFLTPAYHPNVDTQGNICLDILKEKWSALYDVRTILLSIQSLLGEPNIDSPLNTHAAELWKNPTAFKKYLQETYSKQVTSQEP
modifications: active site Cys joined to the TMEA crosslinker
Turning to B1, the binding result was “binds”.
